Measurements reported in US6384302.

Legend:
Assay in all cases: cell-based or functional assay
bovine trypsin (bovine) = bovine trypsin (bovine) (UniProt P00760)
[1] = molecular target: Helicoverpa zea (H. zea) midgut trypsin (Helicoverpa zea)
[2] = molecular target: trypsin (source not stated)

Row | Substance | IA = Inhibitory Activity in IUs (BAPNA hydrolysis) (bovine trypsin (bovine)) | SA = Specific Activity in IU/mg protein (IU/mg protein) (bovine trypsin (bovine)) | IA = Inhibitory Activity in IUs (BAPNA hydrolysis) [1] | SA = Specific Activity in IU/mg protein (IU/mg protein) [1] | inhibition activity after heating at 70° C. for 5 minutes [2] | inhibition activity before heating [2]
1 | Affinity purified P. macroloba trypsin inhibitor (PmTI) | 4.96 IU | 2.48 | 7.46 IU | 3.73 | – | –
2 | Bowman-Birk trypsin inhibitor (soybean) (from UniProt P01055 40-110) | – | 5.03 | – | 2.1 | – | –
3 | Crude P. macroloba seed extract | 0.119 IU | 0.038 | 0.245 IU | 0.079 | 3.7 IU/mg TI | 2.2 IU/mg TI
4 | Kunitz trypsin inhibitor (soybean) (from UniProt P01070 25-205) | – | 1.02 | – | 0.845 | – | –
5 | P. macroloba large trypsin inhibitor (PmLTI) | 5.57 IU | 2.78 | 7.86 IU | 3.93 | – | –
6 | P. macroloba small trypsin inhibitor (PmSTI) | 30.6 IU | 50.9 | 8.54 IU | 14.2 | – | –
